Source: article PMC9371921, “Strand annealing and motor driven activities of SMARCAL1 and ZRANB3 are stimulated by RAD51 and the paralog complex” (Nucleic Acids Research, 2022)

Target: T1, RAD51B;RAD51C;RAD51D;XRCC2 (Homo sapiens;Homo sapiens;Homo …, UniProt O15315;O43502;O75771;O43543 1-384;1-376;1-328;1-280, |||)
T1 sequence 1: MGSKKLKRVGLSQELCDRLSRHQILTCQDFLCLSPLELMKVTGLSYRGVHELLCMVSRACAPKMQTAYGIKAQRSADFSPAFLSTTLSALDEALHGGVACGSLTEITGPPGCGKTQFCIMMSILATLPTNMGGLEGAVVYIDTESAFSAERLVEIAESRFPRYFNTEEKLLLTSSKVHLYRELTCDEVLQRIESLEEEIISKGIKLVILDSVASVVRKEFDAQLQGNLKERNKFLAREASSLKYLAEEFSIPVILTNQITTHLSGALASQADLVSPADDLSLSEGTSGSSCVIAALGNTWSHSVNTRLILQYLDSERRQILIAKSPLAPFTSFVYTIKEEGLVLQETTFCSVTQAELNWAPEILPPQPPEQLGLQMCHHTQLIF
T1 sequence 2: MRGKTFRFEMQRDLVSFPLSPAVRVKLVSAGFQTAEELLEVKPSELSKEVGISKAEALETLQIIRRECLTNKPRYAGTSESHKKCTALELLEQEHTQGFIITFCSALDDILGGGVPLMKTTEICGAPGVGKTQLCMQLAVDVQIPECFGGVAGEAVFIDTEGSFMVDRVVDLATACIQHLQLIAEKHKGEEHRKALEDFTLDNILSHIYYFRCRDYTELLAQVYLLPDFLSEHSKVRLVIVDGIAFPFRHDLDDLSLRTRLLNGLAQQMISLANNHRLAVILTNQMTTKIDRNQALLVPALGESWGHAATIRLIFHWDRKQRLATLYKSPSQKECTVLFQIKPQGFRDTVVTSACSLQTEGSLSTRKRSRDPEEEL
T1 sequence 3: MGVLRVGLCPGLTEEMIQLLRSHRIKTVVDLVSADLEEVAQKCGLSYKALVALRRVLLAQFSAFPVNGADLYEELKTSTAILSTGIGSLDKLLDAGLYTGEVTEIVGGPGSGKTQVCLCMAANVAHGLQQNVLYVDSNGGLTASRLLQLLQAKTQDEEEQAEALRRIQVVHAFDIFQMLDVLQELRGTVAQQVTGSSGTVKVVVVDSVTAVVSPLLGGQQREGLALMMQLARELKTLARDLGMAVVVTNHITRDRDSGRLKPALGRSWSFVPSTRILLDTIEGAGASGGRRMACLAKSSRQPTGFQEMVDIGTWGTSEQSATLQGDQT
T1 sequence 4: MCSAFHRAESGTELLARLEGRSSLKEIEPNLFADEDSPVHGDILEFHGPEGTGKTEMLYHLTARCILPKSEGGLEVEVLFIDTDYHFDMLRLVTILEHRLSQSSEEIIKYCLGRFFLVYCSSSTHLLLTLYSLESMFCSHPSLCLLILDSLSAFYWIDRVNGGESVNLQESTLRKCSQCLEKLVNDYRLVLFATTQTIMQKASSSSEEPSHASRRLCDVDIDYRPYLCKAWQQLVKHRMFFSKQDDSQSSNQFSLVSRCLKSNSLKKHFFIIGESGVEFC
Assay: EMSA; 1 mM ATP, 1 mM Mg acetate; EMSA: 1 nM DNA, 20 mM Tris-acetate pH 7.5, 1 mM DTT, 1 mM magnesium acetate, 0.1 mg/ml BSA, 1 mM ATP, 30 min at 37 C; 6% PAGE in 1x TBE at 4 C
Conditions: protein: recombinant;recombinant;recombinant;recombinant; tags: FLAG;10xHis;none;none; copies: 1;1;1;1; label: 5'-32P

B1: 70-mer ssDNA (PC210) (ssDNA)
DNA: GTAAGTGCCGCGGTGCGGGTGCCAGGGCGTGCCCTTGGGCTCCCCGGGCGCGTACTCCACCTCATGCATC
binding result: binds
